Test results as given in PMC12148588 (eBioMedicine, 2025).

Target: T1, SARS-CoV-2 RBD of the Wuhan strain (Acro Biosystems SPD-C82E9-25) (SARS-CoV-2, Wuhan strain, UniProt P0DTC2)
T1 construct: source: bought: Acro Biosystems
Experiment: SPR; Biacore 8K+, […]; 10 mM HEPES pH 7.4, 150 mM NaCl, 3 mM EDTA, 0.05% Tween 20; […]
Settings: both partners purified

B1: MB043_CL39 (antibody, V domains shown)
VH: EVQLVETGGGLIHPGGSLRLSCAASEFIVSYNYMSWVRQAPGKGLEWVSVIYSGGSTFYADAVKGRFTISRDSSKNTLDLLMNSLRVEDTAVYYCARVLPSNTDYFDYWGQGILVTVSS
VL: QSVLTQPPSVSGATGQRVTISCTGSNSNIGAGSDVHWYQQLPGAAPKLLIYVNNNRPSGVPDRFSGSKSGTSASLAITGLQAEDEADYYCQSYDSSLSGYVFGTGTKVTVL
  fold higher affinity than MB027_D06L: > 200 fold
